The numbers were not newly measured in article PMC12384152, which cites them from elsewhere.

The Kd is a measure of binding affinity in units of concentration.

The data set has as its target β-spectrin repeats 14-15 (Homo sapiens) (UniProt P11277).
Chain of UniProt P11277 (P11277 1691-1907): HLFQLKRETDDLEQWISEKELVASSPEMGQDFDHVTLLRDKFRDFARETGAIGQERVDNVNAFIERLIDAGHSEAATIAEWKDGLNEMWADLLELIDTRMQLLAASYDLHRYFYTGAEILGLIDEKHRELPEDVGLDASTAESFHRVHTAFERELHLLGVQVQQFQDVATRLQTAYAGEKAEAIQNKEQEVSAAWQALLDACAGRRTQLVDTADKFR

For ankyrin-1 ZU5 (from UniProt P16157), the dissociation constant (Kd) is 15 nM.
